Patent publication US20100113304A1 (Pfizer, published 2010)
Numbering of substitutions follows the chain as printed.

B1: 3B4 scFv (scFv)
chain: DIQMTQSPSSLSASVGDRVTITCRASQDVGIYVNWFQQKPGKAPRRLIYRATNLADGVPSRFSGSRSGTDFTLTISSLQPEDFATYYCLEFDEHPLTFGGGTKVEIKDGGGSGGGGSGGGGSSEVQLVESGGGLVQPGGSLRLSCAASGFTFNNYWMTWVRQAPGKGLEWVASIDNSGDNTYYPDSVKDRFTISRDNAKNSLYLQMNSLRAEDTAVYYCARGGDIREGLRYWGQGTLVTVSS
B2: 6D5 scFv (scFv)
chain: B1 chain with R226K, E227V, G228S, R230D, Y231Q

Biological target: T1, biotin labeled hRAGE-Fc (human, UniProt Q15109 24-344, limits assumed, biotin labeled (site not stated))
T1 construct: Biotinylated in selections and HTRF; also called Biotin-labeled RAGE-Fc; biotinylated RAGE-FC; not shown: Fc part, not described
T1 sequence (Q15109 24-344 limits assumed): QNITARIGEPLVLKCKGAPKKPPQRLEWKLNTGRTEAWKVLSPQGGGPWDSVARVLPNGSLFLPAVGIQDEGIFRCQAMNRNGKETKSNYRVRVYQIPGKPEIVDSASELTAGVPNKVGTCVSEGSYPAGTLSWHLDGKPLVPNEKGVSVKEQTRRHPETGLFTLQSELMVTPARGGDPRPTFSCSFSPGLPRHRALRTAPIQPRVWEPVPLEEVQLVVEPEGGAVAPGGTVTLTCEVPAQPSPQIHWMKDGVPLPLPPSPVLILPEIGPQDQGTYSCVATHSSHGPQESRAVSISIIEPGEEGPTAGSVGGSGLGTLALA
Experiment: HTRF competition on biotinylated hRAGE-Fc; scFv titrated; competitor Eu-cryptate-labeled parental XT-M4 antibody

Binder	IC50 [nM]
B1	1.31
B2	1.46
